Source: US11339371B2, “Method for inducing pluripotent stem cells to differentiate into ventricular myocytes in vitro” (Institute of Biophysics, Chinese Academy of Sciences, priority 2012, dated 2022)

B1: noggin: BMP2/4 pathway inhibitor (BMP antagonist); purchased from R&D systems (protein, UniProt Q13253 28-232, looked up)
Noggin: QHYLHIRPAPSDNLPLVDLIEHPDPIFDPKEKDLNETLLRSLLGGHYDPGFMATSPPEDRPGGGGGAAGGAEDLAELDQLLRQRPSGAMPSEIKGLEFSEGLAQGKKQRLSKKLRRKLQMWLWSQTFCPVLYAWNDLGSRFWPRYVKVGSCFSKRSCSVPEGMVCKPSKSVHLTVLRWRCQRRGGQRCGWIPIQYPIISECKCSC
B2: BMP4: bone morphogenetic protein, growth factor activating Smad1/5/8 signaling; purchased from R&D systems (protein, UniProt P12644 293-408, looked up)
Bone morphogenetic protein 4: SPKHHSQRARKKNKNCRRHSLYVDFSDVGWNDWIVAPPGYQAFYCHGDCPFPLADHLNSTNHAIVQTLVNSVNSSIPKACCVPTELSAISMLYLDEYDKVVLKNYQEMVVEGCGCR

Key:
Assay type in all cases: cell-based, human
[1] = tested on: IRX-4; experiment: quantitative RT-PCR of ventricle-specific early marker gene IRX-4 at day 14 of differentiation; conditions: for IRX-4 expression level (FIG. 2A): added to the cultures at various concentrations, relative to GADPH
Source text: T-Smad1/5/8 represents total Smad1/5/8 proteins. β-actin served as an internal loading control. The histogram in FIG. 1C presents the experimental results of quantitative RT-PCR analysis of IRX-4 gene expression levels at 14 days of differentiation. […] Connected line indicates the cardiac differentiation efficiency of the stem cells under the corresponding inductive conditions. N represents noggin, B represents BMP4; NVa represents differentiated cells cultured in vitamin A-free medium; RA represents retinoic acid; and numbers represent the concentrations (Unit for BMP4 is ng/mL). Data are expressed as relative values compared with the expression level of glyceraldehyde-3-phosphate dehydrogenase (GADPH).
FIG. 2 presents quantitative RT-PCR analysis of the expression levels of the ventricle-specific early marker gene IRX-4 at day 14 in differentiated cultures with various treatments. […] However, the expression level is reduced by addition of a BMP antagonist, noggin. […] N represents noggin; B represents BMP4, NVa represents differentiated cells treated in vitamin A-free medium; RA represents retinoic acid; and numbers represents the concentrations (Unit is ng/mL). The results of quantitative RT-PCR are indicated as relative values compared with the expression levels of GADPH.
RA represents retinoic acid; RAi represents a retinoic acid inhibitor, BMS189453; NVa represents vitamin A-free medium; The RAR pan-antagonist is BMS493. The results of quantitative RT-PCR are expressed as relative values compared with cTNT expression
2) The role of the BMP pathway in directed differentiation of CM subtypes was analyzed further during cardiac differentiation of stem cells. IRX-4 is a marker gene expressed during early differentiation of VMs. Thus, the IRX-4 expression level was measured to further study the role of the BMP pathway in differentiation of CM subtypes.

[2] = tested on: MLC-2v-expressing VMs among differentiated CMs; experiment: flow cytometry of MLC-2v-expressing cells among cTNT-expressing CMs at day 90; conditions: for proportion of MLC-2v-expressing cells among differentiated CMs: day 90
Procedure: (§1) In some embodiments, from about day 14 of differentiation, growth factor-free medium is used and replaced every 3 days. After about 60 to about 90 days of differentiation, the percentage of VMs in the differentiated CMs was determined with the analysis of APs of CMs (recorded by the patch clamp technique), calcium imagining studies, and/or MLC-2v and cardiac troponin T (cTNT) double immunofluorescence staining for flow cytometric analysis.
(§2) RA represents 1 μM retinoic acid; B represents BMP4; NVa represents vitamin A-free medium; N represents noggin; and numbers represent the concentrations (Unit is ng/mL). The RARγ concentration is 0.1 μM.
(§3) 5) As mentioned above, during early differentiation of CMs, IRX-4 is an important gene with specific expression in differentiated VMs. As CMs mature, VMs begin to specifically express the MLC-2v gene. Thus, the MLC-2v expression level was measured in differentiated cells at day 90 of culture after treatment with various growth factors. […] Moreover, flow cytometry was performed to determine the proportion of MLC-2v-expressing VMs among differentiated CMs (cTNT-expressing cells) at day 90. […] The most classical method to identify the subtypes of CMs is to measure the APs of the CMs. The proportions of cells with atrial-, ventricular-, and nodal-like APs among differentiated CMs were analyzed after treatment with retinoic acid and various doses of BMP4 (FIG. 8).

[3] = tested on: differentiated CMs; experiment: action potential classification of differentiated CMs (patch clamp); conditions: for proportion of CMs with ventricular-like APs: treatment alone during middle stage, differentiated CMs at 90 days
Procedure: as §1, §2, §3

[4] = tested on: BMP2; experiment: quantitative RT-PCR of BMP2 expression at day 6 of differentiation; conditions: added with DKK1, vitamin A-free medium
Source text: The results of quantitative RT-PCR are indicated as relative values compared with those of GADPH. NVa represents vitamin A-free medium.
Additionally, in vitamin A-containing medium, early specific IRX-4 expression in VMs was activated by addition of DKK1 and antagonists of RARα and RAR. This indicated induced differentiation of stem cells into VMs. Because retinoic acid has three RARs receptors (RARα, RARβ, and RARγ), simultaneous inhibition of RARα and RARβ in the presence of vitamin A or retinoic acid has a similar mechanism and effect as that of independent activation of RARγ alone.

[5] = tested on: differentiated CMs; experiment: calcium imaging of differentiated CMs by confocal laser scanning microscopy at 60-90 days; conditions: 60-90 days of differentiation
Source text: FIG. 5 presents images from confocal laser scanning microscopy and simultaneous recordings of APs of calcium activity in differentiated CMs and the classification of the differentiated CMs according to the specific calcium activity patterns in the various types of CMs. […] FIG. 5B presents the proportions of CMs with Ca^2+ sparks, Ca^2+ transients, and Ca^2+ oscillations in different treatments as classified by calcium signaling patterns of the various subtypes of CMs in A. The vertical axis represents the proportions of CMs with the three different calcium activities; RA represents 1 μM retinoic acid; Letter B represents BMP4; NVa represents vitamin A-free medium; N represents noggin; and numbers represent the concentrations (ng/mL).
4) To verify the role of the BMP pathway in regulating the differentiation of VMs from stem cells, calcium activities of cardiomyocytes were recorded with confocal laser scanning microscopy at 60-90 days of differentiation. Calcium activity in VMs clearly differs from that in AMs and nodel cells. Calcium activity in VMs has a higher imaging frequency, known as Ca^+ sparks. […] Thus, comparing the image pattern of calcium activities in CMs is an effective method to distinguish VMs from AMs and nodel cells.

[6] = tested on: MLC-2v; experiment: western blot of MLC-2v expression in differentiated cells at day 90
Procedure: FIG. 4B presents the results of double immunofluorescence staining of cTNT and MLC-2v in CMs at day 90 of differentiation after retinoic acid, BMP4, and noggin treatments. Letter B in the figures represents BMP4, NVa represents differentiated cells cultured in vitamin A-free medium; RA represents 1 μM retinoic acid; and numbers represent the concentrations (ng/mL).
as §3

| Molecule | ventricle-specific IRX-4 expression ([1]; added along with DKK1 during middle stage of cardiac differentiation, vitamin A-free medium, relative to cTNT) | proportion of MLC-2v-expressing cardiomyocytes in cardiomyocytes population (cTNT-expressing cells) ([2]; 90 days of differentiation, 0.1 μM, vitamin A-free medium) | proportion of CMs with ventricular-like APs [3] | BMP2 expression [4] | IRX-4 expression level (FIG. 2A) ([1]; day 14) | elevation of the IRX-4 expression level by BMP4 in the presence of retinoic acid (FIG. 2D) ([1]; increasing concentrations of noggin, day 14) | IRX-4 expression level ([1]; vitamin A-free medium, added day 5 to day 8 of differentiation, 300, 600, 1200 ng/mL) | IRX-4 expression level in retinoic acid-treated culture ([1]; added simultaneously with 1 μM retinoic acid, day 5 to day 8, various doses) | proportion of cells with Ca+ sparks among differentiated CMs ([5]; retinoic acid plus increasing BMP4) | proportion of cells with Ca+ transients among differentiated CMs ([5]; retinoic acid treatment, with or without BMP4) | MLC-2v protein expression level [6] | proportion of MLC-2v-expressing cells among differentiated CMs ([2]; BMP4 added to cells after retinoic acid treatment) | proportion of MLC-2v-expressing cells among differentiated CMs ([2]; BMP4 treatment alone) | proportion of cells with ventricular-like APs ([3]; differentiated CMs after retinoic acid treatment, increasing doses of BMP4) |
| --- | --- | --- | --- | --- | --- | --- | --- | --- | --- | --- | --- | --- | --- | --- |
| CC1(C)CCC(C)(C)c2cc([C@@H](O)C(=O)Nc3ccc(C(=O)O)cc3F)ccc21 [RARγ, reference compound] | high expression | up to 80% | 92% | high expression |  |  |  |  |  |  |  |  |  |  |
| B1 |  |  |  |  | reduced | reduced with additions of increasing concentrations of noggin | effectively reduced |  |  |  |  |  |  |  |
| B2 |  |  | more than 90% |  | elevated with increasing concentrations of BMP4 |  |  | increased correspondingly | increased with increasing concentrations of BMP4 | decreased with increasing concentrations of BMP4 | increased with increasing concentrations of BMP4 | effectively increased | highest proportion | increased significantly |
